According to the RNAGym collection of RNA variant scans (doi:10.1073/pnas.2313332121):
Fewer inactive variants are shown than the library holds.

B1: TPR 5TU (parent)
chain: GGAUCUUCUCGAUCUAACAAAAAAGACAAAUCUGCCACAAAGCUUGAGAGCAUCUUCGGAUGCAGAGGCGGCAGCCUUCGGUGGCGCGAUAGCGCCAACGUUCUCAACUAUGACACGCAAAACGCGUGCUCCGUUGAAUGGAGUUUAUCAUG

Variants of: B1
Assay: polymerase ribozyme fitness, log enrichment relative to wild type (log ratio); higher = more active; in vitro selection for triplet polymerase activity
Method in brief: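 A heterodimeric triplet polymerase ribozyme had each of its subunits mutagenized by PCR into a library, which was transcribed. One round of in vitro selection, done in triplicate, annealed each library with a biotinylated primer, its partner subunit and triplets, then incubated it frozen at −7 °C before gel excision of extended constructs, streptavidin-bead capture and RT-PCR. Fitness is the logarithm of genotype enrichment relative to wild-type enrichment, based on Illumina sequencing of inputs and outputs and inverse-variance-weighted replicate averages. A base-2 logarithm is used, and genotypes were kept only with ≥10 input reads and ≥1 read per output.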

Point of comparison: A52G C93A, “polymerase ribozyme fitness (log ratio)” value -3.25. Against it:
- C51A C95U A119G — higher, -1.34
- C51A G136A — higher, -0.23
- C51G G58U C93G C123U — lower, ≤ -4.2
- C51A G124A — higher, -0.00389
- U53A C85U G133C — higher, -2.22
- A52C G71A C85A G94C G141U — lower, ≤ -4.2
- C51U C85G A106G — higher, -2.8
- U53A G71A C75G C76U G86A A107U C108U — lower, ≤ -4.2
- U53C A97U C114G U145A — lower, -3.74
- C51U G84A G117C U135A — higher, -0.541
- A52C G58C C85A — lower, -3.96
- U53A G83A — higher, -1.64
- C51U C103A — higher, -1.29
- A52U C79A A110U C116U A120U C131G — lower, ≤ -4.2
- C51A C96U — higher, -1.91
- A52G U56A C87A C93A A113G U135A — lower, ≤ -4.2
- A52C G80C G83U — lower, ≤ -4.2
- A52C A73G G84U A115G C123G G124C C129A — lower, ≤ -4.2
- A52C C93U U102G — lower, ≤ -4.2
- U53A C96G — higher, -2.55
- A52G G83A — higher, -0.0714
- C51U G58A G92C G136A U148C — within 0.2 log units, -3.3
- A52U U61G G80C C87G G94U A121U — lower, ≤ -4.2
- U53A A73C — lower, -3.99
- A52G U53A A119U G126C — higher, 0.147
- A52C C57U G86U C99U C118U C125G G143A U151A — lower, ≤ -4.2
- U53C U55A C99U U111C — lower, ≤ -4.2
- U53A C85G G133C A150C — lower, ≤ -4.2
- U53A C72G C85U U127A — lower, ≤ -4.2
- C51U U139G U144A — higher, 0.259
- A52G G136U A142G — lower, -3.58
- A52G G58C G59C C96G A150U — lower, -3.59
- U53A C54U C85G — higher, -2.55
- C51G A60G — higher, -1.74
- C51G U53A G83C C118U G128A — lower, ≤ -4.2
- A52U C87A A97U U127C A142C — lower, ≤ -4.2
- C51U C72U G80A C85A U109G — lower, ≤ -4.2
- A52G A106U U135A — higher, -1.7
- C51U G86C A113G C114U A121G U151G — lower, ≤ -4.2
- A52G G83U C96A U101C G124A U145A C149U — higher, -2.95
- U53G A107C — lower, ≤ -4.2
- U53G C54G C96G C114U — lower, ≤ -4.2
- A52C C75U C85G C95G — lower, ≤ -4.2
- U53A U55A C96A U127C A138U — lower, ≤ -4.2
- A52C C93U G94C — within 0.2 log units, -3.36
- A52U U55A U56G A66G C99A C132U — lower, ≤ -4.2
- A52G A97U — higher, -0.8
- C51A U61A C95U — higher, -2.06
- C51A G94C — higher, -1.47
- U53A C57G G74C C87A C93A C149A — lower, ≤ -4.2
- A52G U55A G59C G86U A142C G143C — lower, ≤ -4.2
- U53C C118U C129G G141A — lower, ≤ -4.2
- U53A U61A A106U C129U — within 0.2 log units, -3.27
- A52G G152C — lower, -3.59
- A52C C85U — higher, -1.81
- A52G A60G C85A C95G A97G U102A C125A — lower, ≤ -4.2
- U53G A73C G83U G117U — lower, ≤ -4.2
- C51U G124A G133C G140A A150G — lower, ≤ -4.2
- A52U C129U — higher, -2.91
- A52C U55A A91G U111A U139G — lower, ≤ -4.2
- U53A G136U U144G — higher, -1.85
- U53A G59C A60G G84A — higher, -1.76
- A52C G88A — lower, -3.57
- A52G G84A G94U G143A — lower, ≤ -4.2
- U53A G62C G84A G136A — lower, -3.58
- A52G C57A G58A G83U C95U — higher, -0.758
- A52G C93G — lower, -3.95
- A52G C93U — higher, -1.74
- A52U A137G — higher, -2.89
- A52G C57U C75G A91U C95G C123A — lower, -4.05
- A52G C57A C79U C85A C116U A122G — lower, ≤ -4.2
- U53A A73G G74C C85A U90C — lower, ≤ -4.2
- U53A C95A A120G — higher, -1.57
- C51U U53A A110C C116A — lower, ≤ -4.2
- A52C A106G U139C — lower, ≤ -4.2
- U53A G136A — higher, -0.321
- A52C C57U — higher, -1.24
- A52C C57G — higher, -1.79
- A52G G100U — lower, -3.98
- A52G G83A A121G — higher, -0.142
- U53A G74A U77A C96U G126C — lower, ≤ -4.2
- A52G C54A C69A C87G U90C G100U C103A C105G — lower, ≤ -4.2
- A52G U55G G58A C95G U134A U139A — lower, ≤ -4.2
- U53G C54G C85A U134A — lower, ≤ -4.2
- A52C C76G — lower, ≤ -4.2
- A52C C76A — lower, ≤ -4.2
- C51U C93G C116U G141A — lower, -3.75
- U53A G58C A66C G84A A91G U102G A119U C132A — lower, ≤ -4.2
- U53A C95G C96G U146A — lower, -3.91
- U53A A91G G126U G140U — lower, ≤ -4.2
- U53A C95U A138C — lower, ≤ -4.2
- A52U U53G G88C A91C — lower, ≤ -4.2
- A52G C87U C116G A122C G136U — higher, -2.85
- U53A U56G A115U A120G — higher, -2.77
- C51G G94C C149U — lower, -3.9
- C51G C87U C114G — lower, ≤ -4.2
- A52U G84C C116U U146G — lower, -4.11
- C51A C118U G152A — within 0.2 log units, -3.06
- C51G U55A — higher, -2.88
- U53C G58A C99G — higher, -0.95
- U53A U61C C79G A115U A150U — lower, ≤ -4.2
- U53C C57A C95U A98G U104A — higher, -0.528
- A52G C69U A106C C125U — lower, -4.12
- C51U C95G C105G G117U — lower, -3.53
- A52G C57A A66G G68C C93U U101G G112U G140C U145A — lower, ≤ -4.2
- U53G A60U C69U C131G — lower, ≤ -4.2
- C51A U55G C95U C105A G117U — lower, ≤ -4.2
- A52C U55A C72U A98U — within 0.2 log units, -3.14
- C51U G58U U82G C96U — higher, -0.59
- C51U G94U — higher, -1.45
- A52G A106C — higher, -0.69
- C51U C79U — higher, -3.01
- A52U C95U — higher, -1.52
- C51U G83U G86U G94A U135G U144G G152C — lower, ≤ -4.2
- C51U C85U — higher, -0.8
- A52G C125U C131U G143U U146G — lower, ≤ -4.2
- A52U G94A G133U G143U — lower, -3.88
- A52G U53G A106C A119U G136U — lower, ≤ -4.2
- A52C C85A C93U C96G A121C U146C — lower, ≤ -4.2
- C51G C85G C125U A137C — lower, ≤ -4.2
- C51G G136U U144G — higher, -2.56
- A52U C123G — higher, -1.97
- U53A C132U — higher, -1.73
- A52U A60G C76U A89U C96U — lower, -3.8
- A52C A66C A91C A115G — lower, ≤ -4.2
- A52U G68A U82G G133U A137C A142C — lower, ≤ -4.2
- U53A G86A A91C G128C — lower, ≤ -4.2
- A52C C57U U102G U146G — lower, ≤ -4.2
- C51U G84C C87A C95A A122C A137U G141C — lower, ≤ -4.2
- U53A C149U — higher, -1.57
- U53A G70A G88A C96U C123U — lower, ≤ -4.2
- U53A U61A C85U A97U C108U — lower, ≤ -4.2
- U53A G83U A147C — higher, -1.91
- A52G C72U G81A G86A C103G A122C — lower, ≤ -4.2
- C51U G143U — higher, -2.3
- A52C G71C — lower, ≤ -4.2
- A52G G141U U145C G152A — higher, -2.27
- A52U G80C G126A G133C — lower, ≤ -4.2
- A52G G70A C96A U102G C129G G143A U146A — lower, ≤ -4.2
- U53A G94C — higher, -1.3
- A52G A64U U101G A107C C125G — lower, ≤ -4.2
- A52C G88A C95U C99U A110U — lower, -4.07
- A52C C69G G74C — lower, ≤ -4.2
- C51G U56A G68A C93U A97G U104G G143A U146A — lower, ≤ -4.2
- U53A U82G G100A — lower, ≤ -4.2
- A52G A106G G143A — higher, -0.542
- C51U G62C G70A A115U C116A — lower, ≤ -4.2
- A52C C95U C99U — within 0.2 log units, -3.18
- A52C G59A — higher, -1.18
- U53C A150G — higher, -1.01
- C51U G141A — higher, 0.523
- A52G U148G — lower, -4.18
- A52G C69G C85G A97U G126A G141U — lower, ≤ -4.2
- U53A C93G A98G — lower, ≤ -4.2
- U53A U55A C95A A98G C123U G143C — within 0.2 log units, -3.34
- A52U U77G G84C G128A G143A — lower, ≤ -4.2
- A52C A73G A138G — lower, ≤ -4.2
- C51U G58A G124C — higher, -1.29
- U53G A137G — higher, -2.32
- U53A G80C — lower, ≤ -4.2
- C51G G88A — lower, ≤ -4.2
- A52G C95G A107G A120G U139C — lower, -4.13
- A52C C85G G92U — lower, ≤ -4.2
- A52G A60U G71A A121U U135G U148A — lower, -4.18
- A52U G92C — higher, -2.01
- C51G C85A G92U C95A — lower, ≤ -4.2
